Measurements published in the nanobody polyreactivity screen of Harvey et al. (2022).

Test: yeast display, Sf9 membrane polyspecificity reagent, FACS + sequencing; frameworks hold sequencing errors
How it was run: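 Sorting gates, low and high (top ~1%), were placed on anti-HA fluorescence to track expression and on streptavidin fluorescence to track reagent binding. A clone's polyreactivity label is taken from the gate it came out of. The reagent was 10% biotinylated, detergent-solubilized Sf9 membrane, applied for 1 hour at 4 °C to galactose-induced yeast display cells.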

Sequence | polyreactivity (PSR sort gate)
QVQHVESGGGLVQAGGSLRLSCAASGITFFFNAIGWYRQATGKQRQLVAAITSRGGRTYYADSVKGRFTISRDNAKYTVYLQMNSLKPEDTAVYYCAATKKTGYYRYYYWGQGTQVTVSS | high polyreactivity
QVQLVESGGGLVQAGGSLRLSCAASGRTFKRNTMGWYRQAPGKERELVAAISGTGSTNYADSVKGRFTISRDNAKNTVYLQMNSLKPEDTAVYYCGADDFSTVEYDYWGQGTQVTVSS | low polyreactivity
QVQLVESGGGLVQAGGSLRLSCAASGSIFKSYAMGWYRQAPGKERELVAAITRSGGSTYYADSVKGRFTISRDNAKNTVYLQMNSLKPEDTAVYYCAKKAPYWSYYYWGQGTQVTVSS | high polyreactivity
QDQLVESGGGLVQAGGSLRLSCAASGSIFSSNAMGWYRQAPGKERELVAAINKSGGRTYYADSVKGRFTISRDNAKNTVYLQMNSLKPEDTAVYYCNKYGLASGLDYWGQGTQVTVSS | high polyreactivity
QVQLVESGGGLVQAGGSLRLSCAASGRIFHSYAMGWYRQAPGKERELVAAISSGGNTYYADSVKGRFTISRDNAKNTVYLQMNSLKPEDTAVYDCARDWDFLYDGFHSDSYEYWGQGTQVTVSS | low polyreactivity
QVQLVESGGGLVQAGGSLRLSCAASGSTFDIYAMGWYRQAPGKEREMVAAIDFSGGSTYYADSVKGRFTISRDNAKNTVYLQMNSLKPEDTAVYYCAADVQKHFYSFGDERGFPFDYWGQATQVTVSS | low polyreactivity
QDQLGESGGGLVQAGGSLRLSCAASGSTFTWYAMGWYRQAPGKERELVAAISRGGSTNYADSVKGRFTISRDNAKNTVYLQMNSLKPEDTAVYYFAAESYWRDDYWGQGTQVTLSS | low polyreactivity
QVHLVESGGGLVQAGGSLRLSCAASGFIFLGNAMGGYRQAPGKERELVAAISSGGSTYADSVKGRFTISRDNAKNTVYLQMNSLKPEDTAVYYCAVDRAFRAQNYHEYDYWGQGTQVTVSS | low polyreactivity
QVQLQESGGGLVQAGGSLRLSCAARGSICLDQPMGWYRQSPCKDPELVATIGQGGNTNYADSVKGRFTISRDNEKNTVYLYMTSLKPEDTAVYYCAVVYFYNYAYHYYWGQGTQVTVCS | low polyreactivity
QVQLVESGGGLVQAGGSLRLSCAASGSIFNANTMGWYRQAPGKERELVAVITSGGSTYYADSVKGRFTISRDNAKNTVYLQMNSLKPEDTAVYYCAKDPGPYDYDYWGQGTQVTVSS | low polyreactivity
QVQLVESGGGLVQAGGSLRLSCAASGRTFDRNAMGWYRQAPGKERELVAAITSRGGRTYYADSVKGRFTISRDNAKNTVYLQMKSLKPEDTAVYYCAADLFSSRVRSNFDYWGQGTQVTVSS | high polyreactivity
QVQLVESGGGLVQAGGSLRLSSAASGRTFNYYPMGWYRQAPGKQWELVAAISDSAGDTYYADSVKGRFTISRDNAKNTVDLQKNSQKPEDPAVYYCAVVRGGRGYPGYDYWGQGTQVTVSS | low polyreactivity
QVQLVESGGGLVQAGGSLRLSCTASGSIFSHNSMGWYRQAPGKERELVAAINQNGGITYYADSVKGRFTISRDNAKNTVYLQMNSLKPEDTAVYYCAARRYYRRPHKYDYWGQGTQVTVSS | high polyreactivity
QVQLVESGGGLVQAGGSLRLSCAASGSIFVDNAMGWYRQAPGKDRELVAVISWIGSSTYYADSVKGRFTISRDNAKNTDYFQMNSLKPEDTAVYYCAAAPSRTLLRQSKYYYWGQGTQVTVSS | low polyreactivity
QVQLVESGGGLVQAGGSLRLSCAASGITFGDNTMGWYRQAPGKERELVAAITYSSTSTYYADSVKGRFTISRDNPKNTVYLQMNSLKPEDTAVYYCAAEGPVDVVSTDYDYWGQGTQVTVSS | low polyreactivity
QVQLVESGGGLVQAGGSLRLSCAASGSTVVYNVMGWYRQAPGKEREVVAAFRWRGGSTYADSVKGRFTISRDNAKNTVYLQMNCLKPEDTAVYYCAAGIPRYWYAGHYDYWGQGTQVTVSS | low polyreactivity
QVQLVESGGALVQAGGTLRLSGAASGIIFDGYAMGWYRQAPGKEREFVAVISSSGGTTYYADSVKGRFTISRDNAKNTVYLQMNRLKPEDSAVYYCACVYVSLWPSATYWSGFGYWGQGTKVTVSS | low polyreactivity
QVQLVESGGGLVQAGGSLRLSCASSGSTFGPNDMGWYRQAPGKERELVAAISRSGDDTYYADSVKGRFTISRDNAKNTVYLQMNSLKPEDTAVYYCNADGRPFFLRPLRWELDYWGQGTQVTVSS | low polyreactivity
QVQLVESGGGLVQAGGSLRLSCAASGRIFSAYAMGWYRQAPGKERELVAVISSGDSTNYADSVKGRFTISRDNAKNTVYLQMNSLKPEDTAVYYCNARGKHRYGFRSHVGNEYWGQVTQVTVSS | low polyreactivity
QVQLVESGGGLVQAGGSLRLSCAASGRIFPYNAMGWYRQAPGKEREFVASIRTRGVSTYYADSVKGRFTISRDNAKNTVYLQMNSLKPEDTAVYYCNAQRPGYAKGPRYDYWGQGTQVTVSS | high polyreactivity
QVQLLESGGGLDQAGGSLRLSTAASGSTFGVYAMGWYRQARGKEREMVAAISRRGGSTYYADSVKGRFTISRDNAKNTVYLQMNSLKPEDTAVYYCAARGGQMEYWGQGTQVTVSS | high polyreactivity
QVQLVESGGGLVQAGASLRLSCAASGITFVHYAMGWYRQAPWKEREFVAAITKGGGSTSYADSVKGRFTISRDNAKNTVYLQMNSLKPEDTAVDYCAKRYWGTKYGITARFDYWGQGTQVTVSS | high polyreactivity

Sequence | polyreactivity (PSR sort gate)
QVQLVESGGGLVQAGGSLRLSCAASGRIFPYYAMGWYRQAPGKERELVAAISRIGGRTYYADSVKGRFTISRDNAKNTVSLQMNSLKPEDTAVYYCAAGYGGTFNCGQGTQVTVSS | high polyreactivity
QVQHVESWRGLVQAGGSLRLSCDASGSIIQIYAMGWYRQAPGKVRELVASITWSGGSPYYADSVKGRFTISRDNAKNTVYLQMNSLKPEDTAVFYCATDKLYGRTVRMDYWGQGTQVTVSS | low polyreactivity
QVQLVESGGGLVQAGGSLRLSSPASGRTFPGNPMGWYRQAPGKLRELVAAITRVRSTYYADSVKGRFTISRDNAKNTVYLQMNWLKPEDTVVYYCAADRLEGSYEDDATGFDDWGQGTQVTVSS | low polyreactivity
QVQLVESGGGLVHAGGSLRVSCAASGIIFDGNAMGWYRQAPGKERELVAAITASGGSTHYADSVKGRFTISRDNAKNTVYLQMNSLKPEDTAVYYCNKRSRTTGDYDYWGQGTQVTVSS | low polyreactivity
QVQLVESGGGLVQAGGSLRLSCAASGSIIGSYVMGWYRQAPGKERELVATITNGGSTYYADSVKGRFTISRDNAKNTVYLQMNSLKPEDTAVYYCAADGRGDLYVWPGIGGDYWGQGTQVTVSS | low polyreactivity
QVQLVESGGGLVQAGGSLRLSCAASGSTFAVYAMGWYRPAPGKERELVAGISSRGGRTYYADSVKGRFTISRDNAKNTVYLQMNSLKPEDTAVYYCAARFKGNPDRYGYWGQGTQVTVSS | high polyreactivity
QVQLVESGGGLVQAGGSLRLSCVPPDSSSLSMLWDGIDRRLGKKGSWLPVLTSRGVGTYYADSVKGRFTISRDNAKNTVYLQMNSLKPEDTAVYYCYARYEVFYRYDYWGQGTQVTVSS | low polyreactivity
QVQLVESGGGLVQAGGSLRLSCAASGFTFYGYAMGWYRQAPGKERELVAAISSSGGRTYYADSVKGRFTISRDNSKNTVYLQMNSLKPEDTAVYYCAADYTSRDYYYWGQGTQVTVSS | high polyreactivity
QVQLVESGGGLVQAGGSLRLSCAASGSIFSGNAMGWYRQAPGTERELVATISWSGGSTNYADSVKGRFTISRDNAKNTVYIQMNSLKPEETSVYYCNAYVAYWGWVYRVDYWRQGTQVTVSS | low polyreactivity
QVQLVESGGGLVQAGGSLRLTCAASAFIYRRNAMGSYRQAPGKERELVAAITGGGGSTYYADSVKGSFTISRDNAKNTVYLQMNSLKPEDTAVYYCAVDLSRLYNRGGDYWGQGTQVTVSS | high polyreactivity
QVQLVESGGGLVQAGGSLRLSCAASGRIFRIYAMGWYRQAPGKERELVASITWRGGRTYYADSVKGRFTISRDNAKNTVYLQMNSLKPEDTAVYYCAATSSTSYYWGQGTQVTVSS | high polyreactivity
QVQLVESGGGLVHAGCSLRLSCAASGSTYVPYAMGWYRQAPGRERELVADISWSGGSTYYADSVKGRFTISRDNGKNTVFLQMNSLKPEDTAVYYCAATRTKGKFDYWGQGTQVTVSS | high polyreactivity
QVQLVESGGGLVQAGGSLRLSCAATGSTFRPYAMGWYRQAPGKERELVAAITTGGSTNYADSVKGRFTISRDNAKNTVYLQMNSLKPEDTAVYYCNADYDVLNWGYYDWGYDYWGQGTQVTVSS | low polyreactivity
QVQLVESGGGLVQAGGSLRLSCAASGVIFGPNAMGWYRQAPGKERELVAAIRWSGSRTYYADSVKGRFTISRDNAKNTVYLQMNSLKPEDTAVYYCAATGGLNGALSRLEYWGQGTQVTVSS | high polyreactivity
QVQIVESGGGLLQAGGSLRLSCAASGGTFPVYAMVWYRQAPGKERELVAAISYSGVTTYYADSVKGRFTISRDNAKNTVYLQINSLKPDDTAVFYCNADWRRWYIFSYDYWGQGTQVTVSS | low polyreactivity
QVQLVESGVCLVQAGGSLRLSCAATGFTLSTNALGWYRQEPGKESELVAVISGGDSTSYADSVKGRFTISRDNAKNTVYLQMNSLKPEETAVYYCAKVYRRYTSGYDYWGQGTQVTVSS | high polyreactivity
QVQLVESGGGLVQAGGSLSLSCAASGFTFEKNAMGWYRQAPGKERELVAAITSGGSTYYADSVKGRFTISRDNAKNTVYLQMNSLKPEDTAVYYCNAYYTYRFNYWGQGTQVTVSS | high polyreactivity
QVQLVESGGGLVQAGGSLRLSCAASGFTFYRNAMGWYRQAPGKERELVARISRRGGITSYADSVKGRFTISRDNAKNTVYLQMNSLKTEDTAVYYCKAEKRGQSYRFDYWGQGTQVTVSS | high polyreactivity
QVQLVESGGGLVQAGGSLRLSCAASGSTFVENAMGWYRQAPGKERELVAAISSSGDSTFYADSVKGRFTISRDNAKNTVYLKMNSLKPEDTAVYYCAADRRINYDGLDMDYWGQGTQVTVSS | low polyreactivity
QVQLVESGGGLVQAGGSLRLSCAASGRISRVYAMGWYRQAPGKERELVASITGRGGSTYYADSVKGRFTISRDNAKNTVYLQMNSLKPEDTAVYYCAALIDVITGQYDYWGQGTQVTVSS | high polyreactivity
QVQLVESGGGLVQAGGSLRLSCAASGRTFYTNAMGWYRQAPGKERELVAVISRGGTTYYADSVKGRFTISRDNAQNSVSLQMNSLKPDDTAVYYCAKRSPYRYYGYKLRDYWGQGTQVTVSS | low polyreactivity
